Laboratory results published in paper PMC4772501 (The Journal of Cell Biology, 2016).
Values belong to the binder of their own block, whether it stands above or below them.

B2: (His)6Spr3 (natural protein)
chain: MKSKGSRLSTDCPVEFPKIVSGFAEEVKIRRQSSQGQYAVDSHPPKSPELKHRRQRSSSFVNGKCRNRDLPLLDNKKAQEINTNSHGQDIGIKNLPRQRELLNAKNGIDFTLMVAGQSGLGKTTFINSLFSTSLIDDDIKENKPIIRYKSIVEGDGTHLNFNVIDTPGFGNNMDNAFTWRTMVNYIDEEIRSYIFQEEQPDRTKMVDNRVHCCLYFLRPSNKGIDTLDVVTMKKLAKRVNLIPVIAKSDLLTKEELKNFKTQVREIIRVQDIPVCFFFGDEVLNATQDIFQKYPFSIIASNEYIFNEKGEKVKGRQYKWGAVDIENEKYCDFKILQKTIFDWNLIDLVESTEDYYEKCRSEMLRTRLLKARDCLTTKSVDITEEQRKFLEEEMNFDEIEENKLKNYKCYEIINKTVMDKVATEWDPEFITRQLEAKKKFNELSNREISKFRDWKKSLFMEQENFNQEIEQLNHKLENLQLECQDLEYKLLIGKSSNSHSTDSATLVNVHIKR

Legend:
(His)6Spr3 [1] = target: B2; test: negative-stain EM, single-particle class averages
Cdc3 [2] = target: T1, Cdc3 (S. cerevisiae, UniProt P32457 1-520); test: pull-down
T1 sequence: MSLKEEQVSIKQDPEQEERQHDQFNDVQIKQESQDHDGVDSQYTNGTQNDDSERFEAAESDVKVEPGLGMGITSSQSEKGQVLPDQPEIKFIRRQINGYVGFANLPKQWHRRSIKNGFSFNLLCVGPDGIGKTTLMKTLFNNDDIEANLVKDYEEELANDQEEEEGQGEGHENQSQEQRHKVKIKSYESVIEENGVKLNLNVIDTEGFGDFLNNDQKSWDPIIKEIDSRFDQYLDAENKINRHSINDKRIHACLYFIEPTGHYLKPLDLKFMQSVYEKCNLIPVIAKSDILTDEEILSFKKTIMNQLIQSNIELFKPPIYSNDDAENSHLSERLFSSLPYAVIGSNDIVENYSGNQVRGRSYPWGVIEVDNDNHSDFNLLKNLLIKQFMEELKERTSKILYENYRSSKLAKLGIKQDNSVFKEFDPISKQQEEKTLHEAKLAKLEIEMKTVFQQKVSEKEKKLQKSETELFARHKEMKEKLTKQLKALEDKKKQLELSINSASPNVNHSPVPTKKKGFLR

(His)6Spr3 [3] = target: B2; test: pull-down
Cdc3 [4] = target: T1, Cdc3; test: negative-stain EM, single-particle class averages
[5] = target: the molecule itself; test: negative-stain EM, single-particle class averages

binding result ((His)6Spr3 [1]): binds
B1: Spr28 (natural protein)
chain: MFPMKDHSALEQHTLSRDELRRRKGYKKGLQLSILLLGEKGSGKSTFLNNLCGQDISLSDGDYDDDDDKVTNNVTPENGNAIEDIDPGYKTAHLSPGLKLVTRRVYLNDELGVPITLDIILFPGCGDNVDNSQSSVVIKNYLDQQFANVLKEEVRIKRNTKETDGRPHVCLYFLKSTPRGVKKFDIELMKTICDKVNLIPIIPKADGLTETELNLHKDIVRQEISQNNIRVFDFKSDTLGETLALYDMDIDSSSAKSKYDNDTKIKEISPFAIVCSKTFNKNSENRVEHIRTYEWGSLVVEDQNTSDFIYLKAILLGSHLQELKDVTNNVLYENYRAKVLTEKKNNYDIPNYSYIDETSRGSVSNVSTRRNSASRTLGNPDTNDENAYQIHKEIDEKNRIIEDYQRKIDLLEKMLAAPHQNKV

Binder: B2
binding result (Cdc3 [2]): binds

binding result ((His)6Spr3 [3]): binds | binding result (Cdc3 [4]): binds
B3: Cdc10 (natural protein)
chain: MDPLSSVQPASYVGFDTITNQIEHRLLKKGFQFNIMVVGQSGLGKSTLINTLFASHLIDSATGDDISALPVTKTTEMKISTHTLVEDRVRLNINVIDTPGFGDFIDNSKAWEPIVKYIKEQHSQYLRKELTAQRERFITDTRVHAILYFLQPNGKELSRLDVEALKRLTEIANVIPVIGKSDTLTLDERTEFRELIQNEFEKYNFKIYPYDSEELTDEELELNRSVRSIIPFAVVGSENEIEINGETFRGRKTRWSAINVEDINQCDFVYLREFLIRTHLQDLIETTSYIHYEGFRARQLIALKENANSRSSAHMSSNAIQR
binding result [5]: binds
